From patent US20110165265A1, “TRAIL VARIANTS FOR TREATING CANCER” (FUNDACIÓ GENÒMICA (CRG), priority 2007, published 2011)

Target: death receptor 5 (DR5) on the cell surface (human) (UniProt O14763)
Experiment: cell-based or functional assay

Substance: wild-type TRAIL (recombinant human soluble TRAIL, amino acids 114-281) (from UniProt P50591 114-281) (ligand)
- TRAIL-mediated death of Colo205 cells in the presence of neutralizing anti-DR5 antibody: 3 fold
- incubation time of Colo205 cells with 30 ng/ml ligand needed for a comparable level of pro-caspase-8 processing (Western blot): 60 min
